# Reference: PMC3169560 (PLoS Pathogens, 2011)
# Target: T1, HIV-1 Env glycoprotein complex (gp120/gp41) with full-length gp41, on HIV-1 particles of proviral clone R9 … (HIV-1 group M subtype B, proviral clone …)
# T1 construct: also called WT; wild-type HIV-1; copies: 3 + 3
# Assay: immunofluorescence imaging of antibody binding to single immobilised virions; IMMATURE, protease-defective particles (R9.PR- or R9Tr712.PR-) with GFP-Vpr on poly-D-lysine coated dishes; unfixed virions incubated with IgG or CD4-IgG2 (0.25 µg/mL) for 2 h at room temperature, fixed in 2% paraformaldehyde, Cy5 anti-human IgG, confocal microscopy; median average Cy5 intensity per GFP-positive particle; CD4-IgG2 results …
# Settings: one partner purified
binder,measurement,value
"HIV-1 gp41 mAb 4E10 (full-length IgG) (antibody, V domains shown, copies: 2 + 2) VH: QVQLVQSGAEVKRPGSSVTVSCKASGGSFSTYALSWVRQAPGRGLEWMGGVIPLLTITNYAPRFQGRITITADRSTSTAYLELNSLRPEDTAVYYCAREGTTGWGWLGKPIGAFAHWGQGTLVTVSS VL: EIVLTQSPGTQSLSPGERATLSCRASQSVGNNKLAWYQQRPGQAPRLLIYGASSRPSGVADRFSGSGSGTDFTLTISRLEPEDFAVYYCQQYGQSLSTFGQGTKVEVK","fold increase in binding to immature over mature virions, particles with an average intensity above 50 a.u.",6 fold
same,"median average intensity per particle, PR- image over wild-type image",1.4 fold
